Assay results from the DeepSol protein solubility set.

Experiment: soluble on expression in E. coli; label from the status in PepcDB or PDB records

| Sequence | soluble on expression in E. coli |
| --- | --- |
| MTEPLTETPELSAKYAWFFDLDGTLAEIKPHPDQVVVPDNILQGLQLLATASDGALALISGRSMVELDALAKPYRFPLAGVHGAERRDINGKTHIVHLPDAIARDISVQLHTVIAQYPGAELEAKGMAFALHYRQAPQHEDALMTLAQRITQIWPQMALQQGKCVVEIKPRGTSKGEAIAAFMQEAPFIGRTPVFLGDDLTDESGFAVVNRLGGMSVKIGTGATQASWRLAGVPDVWSWLEMITTALQQKRENNRSDDYESFSRSILEHHHHHH | not soluble |
| MTEPSTSGAQDHDDYLVTLSSPQRQCTIRVVQPASALKRKLPTSSVPEFNPDSYGESIPENAPRPVCETCSVAWSTWAAYEFHMLQTHIIYRPFRCSGCRNLNFHTEDEGKHHLEHFHGGKPGSFQLIKQTDFAKENQLIECLENAKTTEQLGISKERLENGLKMIEKLQKIKFKAVKVHLPCCLRHEMISKHTETEKEAPPQEKSVTNAQKPGNPALLSLESRNYDYEQQDTVGI | not soluble |
| MTESIDGNPWRILELVAENEYHLEQDNNVDQLEQFSVIPGFQEELVEFAKKKLLDSIEVQQFLVERDIEFQEKNIASLIDELSDNQDDESNSKEIHLELKSSKNKYEGLRKKIASFKGRQQKAVGFLNSGLEEIRILTSPNDKFCYKVKNASWRCSVDNSIDLQKIKLICEKLIGLEKKMEVTFWTSEIMKLLENLDQRHYAVAFGIIIGMATWEYENSEKYHLLALIHLSIGRDETKTDVLLYWENWENESIEQSIVSLRILMIFYMKISIDDLECRENFEFRICQVIVFILEHKEFESSHLTMITELLGSIEQRFGNFTEMCDIMFTHFEAKAQMFDSYEAKMLVFMRNEHLSLLQTQHIDQCMDTLNILILLYLKIKIDKWTYREIIEQRISQFIICILEHTEFQSIHLTLIIQHLESIEQQFGCFSGKFDNMFKIFELKLQILDRPEQERVSKWIKSLSLRSSISEFSSEHSHSTVTVIEHSEKTYELEQNVRIDLEETLKLEKRIEEVSIEESKKKQEKLELKQREEEEARIKEEEEKQRKILEEEARKKQEEEEARLKAEEELKIYEEEKRKKELEEERKKKEELEIKRKAEEEKKKKALEEEKKRKIAEEKARQKQEKERKKQANKCTFLQNFTFIRHQHPSQTYNERVLDGKVVGLYFSAHWCPPSRDFTPVLAQFYSQVEDNFEILFVSSDNNTQEMNFYLQNFHGDWFHLPLNLCNSMKHRNTKNHIPALIIMKPDGTVITDDGRNLVSQWINDPKALVNHWKAMLN | not soluble |
| MTESTTSSPHDAVFKTFIFTPETARDFLEIHLPEPLRKLCNLQTLRLEPTSFIEKSLRAYYSDVLWSVETSDGDGYIYCVIEHQSSAEKNMAFRPMRYATAAMQSHLDKGYDRVPLVVPLLFYHGETSPYPYSLNWLDEFDDPQLARQLYTEAFPLVDITIVPDDEIMQHRRIALLELIQKHIRDHDLIGMVDRITTLLVRGFTNDSQLQTLFNYLLQCGDTSRFTRFIQEIAERSPLQKERLMTIAERLRQEGHQIGWQEGKLVGLQQGKLEGLQEGMHEQAIKIALRMLEQGIDRDQVLAATQLSEADLAANNH | not soluble |
| MTETDFKLKYWGNQEQDYILPTVGLGREYLVLGKLLISLSKWRAKGLIDFDVYLRPTGVGTLTNTINYEYYKGLEDKYDLTLYIRAKDSYYPLLWIDITGSSWTEEQSKERYGESIYAILSVKVETAKKYDVLGRVFFIHYNDTEDKLKCISALQILNLERQNKIKKDKFERGAKSEYYLIPTSYWKNLTELRIALRGFYQSFKEYLARSNK | soluble |
| MTETELSERLRTWLSQDNERMRALELVLQCAQVHDMPQWCIAAGFVRNLVWDKLHGFDRQPLNDIDLIYYCPLDARPERDWAIEACLRACAPELPWSVKNQARMHLKNHDNPYQSSSDAMAYWPEMETAVGVSLNPTLKTSASVIENLQIVAPFGLASLLALTLTRNPRRSLAVFEQRIIAKGWLSQYPQLVLAN | soluble |
| MTETTENVVITIPDKTSFTFHEAATSPSEGEEFVVGHFRELTVKISGSSTSREIKFYAVDENGEKTALSGTNKTDFQLGSSTLNTNEYWDFDIAGLFKVMFEVVSVTGDVTVKGIVVSLEHHHHHH | soluble |
| MTFEAITREWYQRRYDRWSESYRLEMMSTFESDVFPYIGYRPIKEIKPLELMAVLSKLEKRGATEKMRKVRQRCGEVWKYAIITGRAEYNPAPDLASAFAPHKREHLEHHHHHH | not soluble |
| MTFEKIEEAYQLLLENCQLIENDLKTHIYDAIVEQNSFYLGAEGASPQVAQNSDKLKALCLTKEEWRKAYQFLFIKAAQTEQLQANHQFTPDAIGFILLYLLEQLSDKDSLEVLEIGSGTGNLAQTLLNNTSKSLDYVGIELDDLLIDLSASIAEIMDSSAHFIQEDAVRPQLLKESDIVISDLPVGYYPNDDIAKRYKVASSDKHTYAHHLLMEQSLKYLKKDGFAIFLAPVNLLTSPQSQLLKQWLKDYAQVVTLITLPDSIFGHPSNAKSIIVLQKQTDHPMETFVYPIRDLKLAENIHDFMENFKKWKLSNVN | not soluble |
| MTFKPVEICVYGADVICPACVQLPSSKETYEWLEAALRRKYPDQPFVMTYVDIFAPPADDEEKRELAQTIVEEDWVYPVVVIEGNVVAEGNPRLKAICAEMEKFGYRPSAHEGKKAE | not soluble |
| MTFRPFWLDQALRSEHAAPCPPLAGDTRADVCIVGGGYTGLWTAIMLKEHDPGLDVVLVEADLCGAGASGRNGGCALSWSAKFFTLERLFGLTEAIRLVKASEDSIRAIGAFCQRYDVEADYRLDGTLYTATNPAQVGSTDSVIAALERHGINSFAKRPLADVQRLAGSRRHLEGWFSPAAATVQPGKLVRGLRRVALQLGVRLYEGTPMRGLEHGRPAEVVTPHGRVVAGRVVLALNAWMARAFPQFERSVAIVSSDMLITEPRPDLLQEIGLTSGVSVLDSRIFVHYYHNTPDGRLMLGKGGNTFAYGGRMLPVFDRPSPYLGQLRGSLREFFPEFAEVAIEASWNGPSDRSVTGLPFFGRLDGRDNVFYGFGYSGSGVGPCHMGGQILSSLALGLDNPWTRSPLTQGPLGRFPPEPIRYVGSLMVRNAIRRKEHAEDAGRRPRHLDVRLARFAAAAGKADKGLEHHHHHH | not soluble |
| MTGATGFIGKYIIDNLLARGFHVRALTRTARAHVNDNLTWVRGSLEDTHSLSELVAGASVVVHCAGQVRGHKEEIFTRCNVDGSLRLMQAAKESGFCQRFLFISSLAARHPELSWYAKSKYVAEQRLAAMADEITLGVFRPTAVYGPGDKELKPLFDWMLRGLLPRLGAPDTQLSFLHVTDFAQAVGQWLSAETVQTQTYELCDGVAGGYDWQRVRQLAAKARCGSVRMVDIPLPVLTGLADISTALSRLAGKEPMLTRSKIRELTHADWSASNNRISEDINWFPGISLEHALRNGLF | not soluble |
| MTGQAAGPAAGPAAGQATKHAGGRRPGETRTREAILTAARVCFAERGFDATSLRRIAETAGVDQSLVHHFYGTKENLFLQALELPGKIEEAITAAAQGGLDGIGERVVRAHLSVWDDVSSRPALMTMVRSAAIHRAAAARLRETATGILARALGGVITGEDAMLRTSMVATQLVGLAMMRYVAHLEPLASADTDTVARHYGRAVQAIVTDRD | soluble |
| MTGVDPTIVKIHEIQGTGTASPLVNNVVTIEAIVVGDFQDGDGDISRNLRGFYVQEEDADVDGNVATSEGIFIFENGNFITDVNVGDKVQITGTVDEFFGETQIDTITNITVISSGNTLPTAANITLPTAGTTESQGGTPQPDLEAFEGMLVKFTDTLTITEMFNLDRFNEIKLSQGGRPQQFTQFNDANVAGYGAYREEIGARTITYDDGLSVQNAEISNLDGFGSSFSTASDIRMGDTINNLTGVLSYQWAGNASSGATWRVRSAVDGTNQFTKVNDRPVTPENVGGSLKVTGFNVLLEHHHHHH | soluble |
| MTHKGSCHCGRIAFEVDGEPGSAMACNCSICQRKGSLLWFVPREHLHLLTPDENASTYTFNKHVIRHRFCPVCGMHPYGEGTGADGKAMVAINIRCLEDIDLAAVPVTQFDGRSRLEHHHHHH | soluble |
| MTIEFINCAGCKAKIAEEDVEKNKVVFFLNRMWHRDHIQCIFCKLQISDNRYFRSSIDPMKPSCYACHIQTNHPSCTGCSLPVIERGLVAFNRLFHIDCFRCAICNKTIPQRKGFYERDMMFYDDVCYMLHIKDVL | not soluble |
| MTIELRDVTMENYFDVLNLDVKEYQKQFIATNAISLAEAYVYTKNGDFVAPLAVYDNDAIIGFVMIAYDKKIGISSGNYLLFRFMIDKNFQNQGYFKPIMDKVLDYVRTAPAGLSNKLWLSYEPENEQARFCYLSYGFKETGEISENEVVAIYDLTIEK | not soluble |
| MTIIAGLPVEYNDRFIRGIAVFAPWRKTPGNYHQSHGACLGRRSRTITVVDEQPQGMDMDPTCSLFTTGQCLGEPDLLASARRLQFFSHQYSIAVLMANARGNSALWDEYGRLIVRADRGSLLLVGQRSSQGWQGDIIPLR | not soluble |
| MTIIFPSPIFGPVHSRRLGVSLGINLLPEDGKVCSFDCIYCECGFNADHRPKKHLPTREEVRIALEEKLKDMQKNGPAPDVLTFAGNGEPTAHPHFPEIIEDTLALRDHYFPNAKVSVLSNSTFIDRPAVFDALNKIDNNILKLDTVNEEYIHLLDRPNGKYSVRKIIEKMKEFKGNCIVQTMFLKGSYLGKDMNNTSDEFVLPWLEAVKEIAPSQVMIYTIDRETPDHDLQKATHEELDRIVELIKRTGIPATASY | not soluble |
| MTITNSKAEAWELIGNQFWTIGRVAARPSDRENDIFLENIVPGSTVAVIGASTRFLIEKALERGASVTVFDFSQRMCDDLAEALADRCVTIDLLDITAEIPKELAGHFDFVLNDRLINRFTTEEARRACLGMLSLVGSGTVRASVKLGFYDIDLKLIEYGEQSGTLAKFFDPSDKTFHFREAGDVLDRALVPHGLIDKPTLLEWYRRRGKETRFDDEDVRAL | not soluble |
| MTKEAVLYKKEDGRIRCLACARKCLIGEGQVGFCGVRSVRNGKLYLDVYGKIAAAHIDPIEKKPLVHFNPGSKVFSFSTYGCNWMCMYCQNYDISQRRKAEGVELSPEEIVELAMGYDVDGMTYTYNEPAIFSEFAHDVGIVAKRYGLFNTMVSNGYWTPNLVDYVKDFLDAVTIDFKGNGEQKFLRRYTGATSAEPIIETASELSKKGIHVEITDLIIPQIGDDLQAAKQLLTKLYDQLGADIPIHFLRFHPDYKLNYIPWTPVETLERHYKLAKELGFKFVYVGNVPGHPYENTYCPNCGNLVIRRYSFDILEWHLTEDMRCKFCGYKLPIRGKLSRHAFKERFEPVFI | not soluble |
| MTKEQIQIIKDCVPILQKNGEDLTNEFYKIMFNDYPEVKPMFNMEKQISGEQPKALAMAILMAAKNIENLENMRSFVDKVAITHVNLGVKEEHYPIVGACLLKAIKNLLNPDEATLKAWEVAYGKIAKFYIDIEKKLYDK | soluble |
| MTKIACVIVTYNRKQLLEEALNSVLIQTESPEYVFVIDNASTDGTEKYINDKFNFDNRQWHYVRCSQNLGGSAGFAQGMRLALQTDCSWISISDDDAIFEPGYFAALRKGIKQYPEQSVFSGSVLLPDGKHDMMHREVITNSATLTVRCVTDETYKHDFSYDIFSFVGILLSRQVIEAIGLPEQDYFIRFDDFEYAVRALKFGRFMNLSAAKVLHKTTYTRSALEHHHHHH | not soluble |
| MTKKLIKIWRKEMLALMNEDADWYRNEDTERFKRIQELARKIETANTRQFSSHISKERFEAYQKMGLQFKEIAEEFHITTTALQQWRKDNGYPIYNKNNRK | not soluble |
| MTKKQLHLVIVTGMSGAGKTVAIQSFEDLGYFTIDNMPPALLPKFLQLVEIKEDNPKLALVVDMRSRSFFSEIQAVLDELENQDGLDFKILFLDAADKELVARYKETRRSHPLAADGRILDGIKLERELLAPLKNMSQNVVDTTELTPRELRKTLAEQFSDQEQAQSFRIEVMSFGFKYGIPIDADLVFDVRFLPNPYYLPELRNQTGVDEPVYDYVMNHPESEDFYQHLLALIEPILPSYQKEGKSVLTIAMGCTGGQHRSVAFAKRLAQDLSKNWSVNEGHRDKDRRKETVNRS | not soluble |
